Assay results reported in PMC12229497, “The intracellular bacterium Orientia tsutsugamushi uses the autotransporter ScaC to activate BICD adaptors for dynein-based motility” (Nature Communications, 2025).
Positions count from the first letter of the chain named. Numbers in names are those of the source.

B1: ScaC passenger domain (residues 33–223), C-terminal TEV-6His (domain or fragment)
chain: VSNMNLDISNMGEAREGLRKDIAEVSKLLCMLEKSTASSKNLTMRLQQSDTRENEQSNHIRLLITEIESINKENDCLRQKNNQLKIKLHQLKVKLEQALARNTDLQQILPKSQAEMDNLRKQNEQLKIQLQQLQVKLQDLMSLQNKCSNLALINSVKLNYIRDIKYIALANIVIVKALASTFTEKLSKSNR
notes: source: SoluBL21 E. coli, purified (Ni-NTA, MonoQ, Superdex 200)
B2: Strep-BICD2^711–800 (CC3 domain) (domain or fragment, mouse, UniProt Q921C5 711-800, looked up)
chain: YENEKAMVTETMMKLRNELKALKEDAATFSSLRAMFATRCDEYITQLDEMQRQLAAAEDEKKTLNSLLRMAIQQKLALTQRLELLELDHE
notes: also called CC3 of BICD2; not shown: Strep, N-terminal, kept
B3: ScaC^50–159 (domain or fragment)
chain: LRKDIAEVSKLLCMLEKSTASSKNLTMRLQQSDTRENEQSNHIRLLITEIESINKENDCLRQKNNQLKIKLHQLKVKLEQALARNTDLQQILPKSQAEMDNLRKQNEQLK
notes: source: SoluBL21 E. coli, purified (StrepTactin, Superdex 200)
B4: Strep-BICD2^711–800 L742A (domain or fragment, mouse, UniProt Q921C5 711-800, looked up)
chain: B2 chain with L32A
notes: not shown: Strep, N-terminal, kept
B5: Strep-BICD2^711–800 L786A (domain or fragment, mouse, UniProt Q921C5 711-800, looked up)
chain: B2 chain with L76A
notes: as for B4
B6: Strep-BICD2^711–800 L742A/L786A (domain or fragment, mouse, UniProt Q921C5 711-800, looked up)
chain: B2 chain with L32A, L76A
notes: also called double L742A/L786A mutant; not shown: Strep, N-terminal, kept
B7: ScaC-AF647 (ScaC-SNAP labelled with SNAP-Surface Alexa Fluor 647) (domain or fragment)
chain: B1 chain
modifications: Alexa Fluor 647 on the SNAP tag (SNAP-Surface Alexa Fluor 647)
notes: source: SoluBL21 E. coli, purified (Ni-NTA, MonoQ, labelling, Superdex 200)

Experiments:
[1] = biological target: T1, BICD2, full-length mouse (mouse, UniProt Q921C5 1-820); assay: SEC-MALS; 1 mg/mL, Superose 6 10/300, GF150 buffer, 0.5 ml/min; conditions: both partners purified
T1 construct: also called full-length BICD2

[2] = biological target: the molecule itself; assay: as above
[3] = biological target: T2, GCN4-RANBP2^min (RANBP2 residues 2148–2240 fused to an N-terminal GCN4 dimerization tag) (human, UniProt P49792 2148-2240); assay: pull-down; conditions: both partners purified
T2 construct: not shown: GCN4 dimerization tag, N-terminal, kept

[4] = biological target: T3, RAB6^Q72L (GTP-locked RAB6 mutant) (human, UniProt P20340 1-208, Q72L); assay: pull-down; conditions: both partners purified
T3 construct: source: SoluBL21 E. coli, purified (Glutathione Sepharose, GST cleaved, Superose 6, with 10 μM GTP); not shown: GST, N-terminal, cleaved

[5] = biological target: B1; assay: SEC; reconstitution: BICD2 and ScaC constructs mixed in a 1:2 molar ratio, 15 min on ice, Superose 6 Increase 3.2/300 in GF150 buffer; fractions on SDS-PAGE; conditions: both partners purified
[6] = biological target: T1, BICD2, full-length mouse; assay: as above; conditions: both partners purified
[7] = biological target: B1; assay: pull-down; conditions: both partners purified
[8] = biological target: T4, BICD2-AF488 (BICD2-SNAP labelled with SNAP-Surface Alexa Fluor 488) (mouse, UniProt Q921C5 1-820, Alexa Fluor 488 on the SNAP tag (SNAP-Surface Alexa Fluor 488)); assay: single-molecule TIRF dual-colour co-migration on microtubules; conditions: both partners purified
T4 construct: also called BICD2-488; not shown: SNAP, C-terminal, kept
T4 sequence (Q921C5 whole entry): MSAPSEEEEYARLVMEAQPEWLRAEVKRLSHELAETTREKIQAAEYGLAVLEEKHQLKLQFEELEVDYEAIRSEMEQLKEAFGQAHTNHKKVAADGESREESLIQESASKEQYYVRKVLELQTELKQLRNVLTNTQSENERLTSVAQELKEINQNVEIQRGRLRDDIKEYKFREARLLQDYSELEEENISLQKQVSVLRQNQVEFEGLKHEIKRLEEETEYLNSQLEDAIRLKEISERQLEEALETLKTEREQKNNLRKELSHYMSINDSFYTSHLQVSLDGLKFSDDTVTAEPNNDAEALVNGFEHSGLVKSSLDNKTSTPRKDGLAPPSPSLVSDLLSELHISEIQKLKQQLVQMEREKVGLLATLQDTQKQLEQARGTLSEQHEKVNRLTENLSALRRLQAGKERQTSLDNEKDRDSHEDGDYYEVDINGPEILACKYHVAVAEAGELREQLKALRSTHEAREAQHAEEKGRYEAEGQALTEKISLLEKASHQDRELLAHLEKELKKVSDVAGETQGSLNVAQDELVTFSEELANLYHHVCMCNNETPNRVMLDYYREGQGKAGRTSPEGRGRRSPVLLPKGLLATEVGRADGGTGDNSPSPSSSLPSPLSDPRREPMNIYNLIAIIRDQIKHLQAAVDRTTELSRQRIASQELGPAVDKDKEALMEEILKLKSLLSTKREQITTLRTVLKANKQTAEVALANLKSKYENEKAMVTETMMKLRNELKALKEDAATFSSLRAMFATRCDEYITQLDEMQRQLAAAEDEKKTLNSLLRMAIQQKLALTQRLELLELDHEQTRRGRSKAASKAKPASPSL

T1 sequence (Q921C5 whole entry): as above
T3 sequence (P20340 whole entry Q72L): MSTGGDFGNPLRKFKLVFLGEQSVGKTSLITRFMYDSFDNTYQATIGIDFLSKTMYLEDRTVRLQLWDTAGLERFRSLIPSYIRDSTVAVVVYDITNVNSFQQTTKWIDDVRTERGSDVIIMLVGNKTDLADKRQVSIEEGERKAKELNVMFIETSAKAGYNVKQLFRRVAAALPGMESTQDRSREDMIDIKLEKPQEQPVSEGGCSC
T2 sequence (P49792 2148-2240): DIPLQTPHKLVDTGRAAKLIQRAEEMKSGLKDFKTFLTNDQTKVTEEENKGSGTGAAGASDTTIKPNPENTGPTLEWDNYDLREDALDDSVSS

B1
stoichiometry N [1]: 1 ScaC:BICD2 (2:2)
stoichiometry N [2]: 2

B2
binding result [3]: binds
binding result [4]: binds
binding result [5]: binds

B3
binding result [6]: binds

B4
binding result [7]: binds

B5
binding result [7]: binds

B6
binding result [7]: binds

B7
binding result [8]: binds
